Consider 3 substances from patent US20070036810A1, “Cyclic amp response element activator proteins and uses related thereto” (priority 2003, published 2007).

The experiment addresses GAL4-CREB fusion protein (Stratagene): CREB activation domain fused with the yeast GAL4 DNA binding domain (amino acids 1-147) (yeast) (UniProt P04386). Kind of experiment: cell-based or functional assay.

The substance “human CREAP2, full length (from UniProt Q53ET0 1-693)” displayed a Fold Induction (luciferase from the genome-integrated pFR-Luc/UAS-Luc reporter in HLR cells, GAL4-CREB co-transfected with CREAP2, normalized to pCMV-BD vector) of 178 fold.
For “human CREAP1 (CRE activating protein 1), full length (from UniProt Q6UUV9 1-634)”, the Fold Induction (luciferase from the genome-integrated pFR-Luc/UAS-Luc reporter in HLR cells, GAL4-CREB co-transfected with CREAP1, normalized to pCMV-BD vector) was found to be 233 fold.
As to “human CREAP3, full length (from UniProt Q6UUV7 1-619)”, the Fold Induction (luciferase from the genome-integrated pFR-Luc/UAS-Luc reporter in HLR cells, GAL4-CREB co-transfected with CREAP3, normalized to pCMV-BD vector) amounted to 448 fold.
